Experiment [1] has as its target T1, rat calcitonin receptor (rat, UniProt P32214 25-516).
T1 construct: whole, on cells; Used as membranes prepared from BHK tk'ts 13 cells transiently transfected with the rat calcitonin receptor (Assay VIII); also called rCTR; rat calcitonin (a) receptor
T1 sequence (looked up): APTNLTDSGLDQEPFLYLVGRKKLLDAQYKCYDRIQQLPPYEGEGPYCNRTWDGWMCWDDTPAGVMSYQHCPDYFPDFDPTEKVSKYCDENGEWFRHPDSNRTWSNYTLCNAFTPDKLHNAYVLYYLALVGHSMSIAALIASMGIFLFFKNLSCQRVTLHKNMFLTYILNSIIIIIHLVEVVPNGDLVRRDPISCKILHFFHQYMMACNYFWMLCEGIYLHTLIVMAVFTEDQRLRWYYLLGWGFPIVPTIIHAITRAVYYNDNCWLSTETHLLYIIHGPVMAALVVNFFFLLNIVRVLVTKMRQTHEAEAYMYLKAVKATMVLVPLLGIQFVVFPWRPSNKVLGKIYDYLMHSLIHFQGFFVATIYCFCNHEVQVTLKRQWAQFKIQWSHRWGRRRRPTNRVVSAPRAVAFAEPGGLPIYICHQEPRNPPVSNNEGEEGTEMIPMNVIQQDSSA
Briefly: IC50 on rat CTR divided by IC50 on rat amylin receptor (Assays VIII/VI).

Experiment [2] deals with T2, human calcitonin receptor (human, UniProt P30988 25-474).
T2 construct: whole, on cells; Used as membranes prepared from a BHK tk'ts 13 cell line stably transfected with the human calcitonin receptor (Assay VII); also called hCTR; hCT
T2 sequence (looked up): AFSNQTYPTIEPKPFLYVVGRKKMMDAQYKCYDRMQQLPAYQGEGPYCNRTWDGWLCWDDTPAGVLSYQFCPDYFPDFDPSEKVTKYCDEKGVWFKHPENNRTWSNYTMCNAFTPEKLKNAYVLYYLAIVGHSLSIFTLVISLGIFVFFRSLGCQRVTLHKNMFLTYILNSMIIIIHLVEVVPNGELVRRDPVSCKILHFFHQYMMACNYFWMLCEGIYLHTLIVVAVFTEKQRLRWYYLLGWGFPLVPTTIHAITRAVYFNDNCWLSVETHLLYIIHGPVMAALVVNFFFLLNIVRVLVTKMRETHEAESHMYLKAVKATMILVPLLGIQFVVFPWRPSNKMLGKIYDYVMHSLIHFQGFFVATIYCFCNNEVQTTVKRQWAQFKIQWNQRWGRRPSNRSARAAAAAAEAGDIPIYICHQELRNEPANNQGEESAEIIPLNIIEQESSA
Briefly: IC50 on human CTR divided by IC50 on human amylin receptor (Assays VII/V). The essentials: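 Membranes (35 ng/μL final) + SPA beads, 50 mM Hepes pH 7.4 buffer with 1 mM CaCl2, 5 mM MgCl₂, 0.1% OA, 0.02% Tween20; 120 min, 25° C, shaking; centrifuged, counted; IC₅₀ by one-site binding competition.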

For experiment [3], the target named is T1, rat calcitonin receptor. Briefly: SPA competition with 125I-calcitonin, membranes of BHK cells with rat CTR (Assay VIII).
In experiment [4] the target is T3, rat amylin receptor (rat calcitonin receptor + rat RAMP 3) (rat, UniProt P32214 25-516; Q9JJ73 23-147).
T3 construct: whole, on cells; Used as membranes prepared from BHK tk'ts 13 cells transiently transfected with rat calcitonin receptor and rat RAMP 3 (Assay VI); also called rAmylin-R; rat amylin 3(a) receptor
T3 sequence (looked up) 1: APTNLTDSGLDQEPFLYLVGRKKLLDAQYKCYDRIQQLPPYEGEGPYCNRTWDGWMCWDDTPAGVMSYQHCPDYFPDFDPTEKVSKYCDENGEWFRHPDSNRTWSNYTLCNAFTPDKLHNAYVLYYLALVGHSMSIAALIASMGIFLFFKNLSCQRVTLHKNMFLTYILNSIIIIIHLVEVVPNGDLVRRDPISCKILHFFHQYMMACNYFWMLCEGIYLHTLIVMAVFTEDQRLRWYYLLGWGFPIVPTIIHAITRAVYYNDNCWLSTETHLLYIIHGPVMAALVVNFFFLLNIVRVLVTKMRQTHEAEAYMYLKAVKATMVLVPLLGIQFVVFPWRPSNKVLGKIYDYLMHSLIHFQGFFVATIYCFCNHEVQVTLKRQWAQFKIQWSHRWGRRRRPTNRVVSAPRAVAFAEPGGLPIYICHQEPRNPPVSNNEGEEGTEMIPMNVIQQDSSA
T3 sequence (looked up) 2: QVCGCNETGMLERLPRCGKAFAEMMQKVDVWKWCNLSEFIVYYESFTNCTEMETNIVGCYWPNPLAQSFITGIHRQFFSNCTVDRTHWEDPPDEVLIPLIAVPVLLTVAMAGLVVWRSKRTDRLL
Briefly: SPA competition with 125I-rat amylin, membranes of BHK cells with rat CTR + rat RAMP3 (Assay VI).

Numbered stars: 1 amine (or outer) side, 2 acyl side, 3 side chain; on linkers, the order of the positions; unused ones are H or OH. Bridge positions count the residues as written; N and C are the ends. Side chains are listed from the residue outwards. Ends that are not written are not given here. * marks the point of attachment. C20 diacid = O=C(O)CCCCCCCCCCCCCCCCCCC(=O)*; γGlu = O=C(O)[C@H](CCC(=O)[*:2])N[*:1]

B1: N^ε1-[(4S)-4-carboxy-4-(19-carboxynonadecanoylamino)butanoyl]-[His14,Arg17,Pro21,Pro27,His35]-h-amylin (peptide)
peptide: K([γGlu-C20 diacid])CNTATCATQRLAHFLRHSSPNFGAIPSSTNVGSHTY-NH2
modifications: disulfide 2-7; N-terminus assumed
SMILES: CC[C@H](C)[C@H](NC(=O)[C@H](C)NC(=O)CNC(=O)[C@H](Cc1ccccc1)NC(=O)[C@H](CC(N)=O)NC(=O)[C@@H]1CCCN1C(=O)[C@H](CO)NC(=O)[C@H](CO)NC(=O)[C@H](Cc1c[nH]cn1)NC(=O)[C@H](CCCNC(=N)N)NC(=O)[C@H](CC(C)C)NC(=O)[C@H](Cc1ccccc1)NC(=O)[C@H](Cc1c[nH]cn1)NC(=O)[C@H](C)NC(=O)[C@H](CC(C)C)NC(=O)[C@H](CCCNC(=N)N)NC(=O)[C@H](CCC(N)=O)NC(=O)[C@@H](NC(=O)[C@H](C)NC(=O)[C@@H]1CSSC[C@H](NC(=O)[C@@H](N)CCCCNC(=O)CC[C@H](NC(=O)CCCCCCCCCCCCCCCCCCC(=O)O)C(=O)O)C(=O)N[C@@H](CC(N)=O)C(=O)N[C@@H]([C@@H](C)O)C(=O)N[C@@H](C)C(=O)N[C@@H]([C@@H](C)O)C(=O)N1)[C@@H](C)O)C(=O)N1CCC[C@H]1C(=O)N[C@@H](CO)C(=O)N[C@@H](CO)C(=O)N[C@H](C(=O)N[C@@H](CC(N)=O)C(=O)N[C@H](C(=O)NCC(=O)N[C@@H](CO)C(=O)N[C@@H](Cc1c[nH]cn1)C(=O)N[C@H](C(=O)N[C@@H](Cc1ccc(O)cc1)C(N)=O)[C@@H](C)O)C(C)C)[C@@H](C)O
notes: Analogue of human amylin; also called compound 66
As to B1, the “Ratio rCT/rAmylin binding” value with rat calcitonin receptor [1] amounted to 35.8. For the same molecule, in experiment [2], the “Ratio hCT/hAmylin binding” value was determined as 45.5. For the same molecule, the figures for the IC50 (with rat calcitonin receptor [3]; in experiment [4]) were 20.8 nM and 0.581 nM, respectively.

B2: N^ε1-[(4S)-4-carboxy-4-(19-carboxynonadecanoylamino)butanoyl]-[His14,Arg17,Pro21,Pro27,Pro31]-h-amylin (peptide)
peptide: K([γGlu-C20 diacid])CNTATCATQRLAHFLRHSSPNFGAIPSSTPVGSNTY-NH2
modifications: disulfide 2-7; N-terminus assumed
SMILES: CC[C@H](C)[C@H](NC(=O)[C@H](C)NC(=O)CNC(=O)[C@H](Cc1ccccc1)NC(=O)[C@H](CC(N)=O)NC(=O)[C@@H]1CCCN1C(=O)[C@H](CO)NC(=O)[C@H](CO)NC(=O)[C@H](Cc1c[nH]cn1)NC(=O)[C@H](CCCNC(=N)N)NC(=O)[C@H](CC(C)C)NC(=O)[C@H](Cc1ccccc1)NC(=O)[C@H](Cc1c[nH]cn1)NC(=O)[C@H](C)NC(=O)[C@H](CC(C)C)NC(=O)[C@H](CCCNC(=N)N)NC(=O)[C@H](CCC(N)=O)NC(=O)[C@@H](NC(=O)[C@H](C)NC(=O)[C@@H]1CSSC[C@H](NC(=O)[C@@H](N)CCCCNC(=O)CC[C@H](NC(=O)CCCCCCCCCCCCCCCCCCC(=O)O)C(=O)O)C(=O)N[C@@H](CC(N)=O)C(=O)N[C@@H]([C@@H](C)O)C(=O)N[C@@H](C)C(=O)N[C@@H]([C@@H](C)O)C(=O)N1)[C@@H](C)O)C(=O)N1CCC[C@H]1C(=O)N[C@@H](CO)C(=O)N[C@@H](CO)C(=O)N[C@H](C(=O)N1CCC[C@H]1C(=O)N[C@H](C(=O)NCC(=O)N[C@@H](CO)C(=O)N[C@@H](CC(N)=O)C(=O)N[C@H](C(=O)N[C@@H](Cc1ccc(O)cc1)C(N)=O)[C@@H](C)O)C(C)C)[C@@H](C)O
notes: Analogue of human amylin; also called compound 62
As for B2, the “Ratio rCT/rAmylin binding” value in the experiment with rat calcitonin receptor [1] is 42.8. The “Ratio hCT/hAmylin binding” value in experiment [2] was 63. The IC50 (usually the concentration that gives 50% inhibition) with rat calcitonin receptor [3] was 18 nM; in experiment [4], 0.42 nM.

The values are drawn from patent US20140087995A1 (published 2014).
